Experimental data published in article PMC10825690 (2023).

Target: acetylated bovine serum albumin (AcBSA) (Bos taurus, UniProt P02769)
Assay: microscale thermophoresis

Sequence of acetylated bovine serum albumin (AcBSA) (P02769 25-607): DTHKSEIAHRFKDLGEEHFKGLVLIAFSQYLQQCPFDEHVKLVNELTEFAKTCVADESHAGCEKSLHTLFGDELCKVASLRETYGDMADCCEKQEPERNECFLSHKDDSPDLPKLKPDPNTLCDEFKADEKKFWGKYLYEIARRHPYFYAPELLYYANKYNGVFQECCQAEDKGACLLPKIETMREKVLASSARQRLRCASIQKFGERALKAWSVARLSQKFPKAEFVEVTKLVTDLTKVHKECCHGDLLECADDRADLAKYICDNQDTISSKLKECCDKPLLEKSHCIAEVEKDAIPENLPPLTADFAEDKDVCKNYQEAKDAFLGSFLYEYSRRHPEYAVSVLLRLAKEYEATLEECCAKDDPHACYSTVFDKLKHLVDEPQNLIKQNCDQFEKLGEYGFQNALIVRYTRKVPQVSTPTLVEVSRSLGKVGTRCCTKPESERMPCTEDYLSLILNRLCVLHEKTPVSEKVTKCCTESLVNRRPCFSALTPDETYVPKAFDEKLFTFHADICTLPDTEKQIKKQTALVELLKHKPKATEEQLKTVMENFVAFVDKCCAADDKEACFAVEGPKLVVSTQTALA

B1: FIBCD1 236-461 (protein)
chain: ATGSRPRDCLDVLLSGQQDDGVYSVFPTHYPAGFQVYCDMRTDGGGWTVFQRREDGSVNFFRGWDAYRDGFGRLTGEHWLGLKRIHALTTQAAYELHVDLEDFENGTAYARYGSFGVGLFSVDPEEDGYPLTVADYSGTAGDSLLKHSGMRFTTKDRDSDHSENNCAAFYRGAWWYRNCHTSNLNGQYLRGAHASYADGVEWSSWTGWQYSLKFSEMKIRPVREDR
modifications: acetylated BSA, RED-NHS labeled FIBCD1, calcium
  Kd: 53 nM
